Results reported in publication PMC7610145, “Transglutaminase-Mediated Cross-Linking of Tropoelastin to Fibrillin Stabilises the Elastin Precursor Prior to Elastic Fibre Assembly” (Journal of Molecular Biology, 2020).

Legend:
Conditions in all cases: both partners purified
[1] = biological target: T1, tropoelastin, SHELΔ26A (Synthetic Human Elastin without domain 26A) (human, UniProt P15502-2 27-724); assay: SEC-MALS; TG2 cross-linked complex eluting at ~10 ml, 0.5 mg/ml, Superose 6, 10 mM Tris–HCl (pH 7.4), 150 mM NaCl
T1 construct: human tropoelastin without domain 26A; residues 27–724, the 60 kDa mature form of the secreted protein following removal of the signal peptide; the precursor counted on has 724 residues (isoform lacking domain 26A); contains K38 in domain 4; also called TE; full-length TE; source: expressed in bacteria, purified as described previously [23]
T1 sequence (looked up): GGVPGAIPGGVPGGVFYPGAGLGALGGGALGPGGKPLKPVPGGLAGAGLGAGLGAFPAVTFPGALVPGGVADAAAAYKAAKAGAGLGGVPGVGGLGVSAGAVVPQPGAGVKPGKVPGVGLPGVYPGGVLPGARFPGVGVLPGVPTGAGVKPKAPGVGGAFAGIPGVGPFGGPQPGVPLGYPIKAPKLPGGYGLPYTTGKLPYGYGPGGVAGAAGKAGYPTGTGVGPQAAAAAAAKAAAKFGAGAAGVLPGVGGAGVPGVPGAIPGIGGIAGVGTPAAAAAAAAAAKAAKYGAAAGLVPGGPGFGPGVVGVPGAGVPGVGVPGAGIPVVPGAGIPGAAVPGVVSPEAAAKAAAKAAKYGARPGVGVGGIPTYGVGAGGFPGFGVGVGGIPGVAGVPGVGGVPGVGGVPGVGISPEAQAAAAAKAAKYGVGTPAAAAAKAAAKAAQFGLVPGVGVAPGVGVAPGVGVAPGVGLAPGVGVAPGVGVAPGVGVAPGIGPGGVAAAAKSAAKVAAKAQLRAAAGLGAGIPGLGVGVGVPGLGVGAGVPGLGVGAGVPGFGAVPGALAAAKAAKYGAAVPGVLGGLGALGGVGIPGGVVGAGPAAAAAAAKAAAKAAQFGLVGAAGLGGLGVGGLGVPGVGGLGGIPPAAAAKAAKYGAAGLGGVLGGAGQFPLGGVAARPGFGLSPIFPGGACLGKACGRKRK

[2] = biological target: T1, tropoelastin, SHELΔ26A (Synthetic Human …); assay: SEC; PF2 and TE incubated with TG2 at a 1:1 ratio, separated on a Superose 6 column in 10 mM Hepes, 500 mM NaCl, 1 mM CaCl2 (pH 7.4); fractions on SDS-PAGE
[3] = biological target: T1, tropoelastin, SHELΔ26A (Synthetic Human …); assay: cross-linking; PF2 and TE incubated alone or together (1:1 or 2:1) at 16 °C for 2 h in 10 mM Hepes, 500 mM NaCl, 1 mM CaCl2 (pH 7.4), then with or without TG2 from guinea pig liver for a further 4 h; read by SDS-PAGE

stoichiometry N [1]: ~1 PF2:TE | stoichiometry of the larger species [2]: 2 copies of each (2:2) | stoichiometry N [3]: 1 PF2:TE
B1: fibrillin-1 PF2 fragment (domains TB1 to TB2, encoded by exons 9–17), natively glycosylated (domain or fragment)
chain: not shown
modifications: N-linked glycan at N448
notes: fibrillin-1, fragment encompassing domains TB1 to TB2, encoded by exons 9–17; includes Q669 (TB2); SAXS data on PF2, TE and the complex are deposited in the SASDB (SAS2517, 2518, 2519); also called fibrillin PF2; fibrillin PF2 construct
